Source: patent US20220372125A1 (ASLAN PHARMACEUTICALS PTE, published 2022)

Molecular target: RON (Macrophage stimulating protein receptor), full length, on cells (human, UniProt Q04912 25-1400)
Assay: cell-based or functional assay

Binder	EC50 of antibody dependent cellular cytotoxicity (xCELLigence, T47D targets, human NK cells, E:T 10:1)	IC50 of inhibition of MSP induced ERK phosphorylation (AlphaLISA SureFire p-ERK, T47D cells)
chimeric 10G1 (mouse Fab with human Fc backbone) (antibody, V domains shown) VH: EVKLEQSGGGLVQPGGSRKLSCAASGFTFSSFGMHWVRQAPEKGLEWVAYISGGSGTFYYADTVKGRFTISRDNPKNTLFLQMTSLRSEDTAIYYCARSTTVLDYWGQGTTLTVSS VL: DIVLTQTPSSMYAFLGERVTIICKASQDINNYLNWVQQKPGKAPKTLIYHADRLADGVPSRFSGSGSGQDYSLTISSLEYEDMGIYYCLQYDDFPPFTFGSGTKLEIK	0.003 nM	
Narnatumab (antibody, V domains shown) VH: EVQLVESGGGLVQPGGSLRLSCAASGFTFSSYLMTWVRQAPGKGLEWVANIKQDGSEKYYVDSVKGRFTISRDNAKNSLNLQMNSLRAEDTAVYYCTRDGYSSGRHYGMDVWGQGTTVIVSS VL: EIVLTQSPATLSLSPGERATLSCRASQSVSRYLAWYQQKPGQAPRLLIYDASNRATGIPARFSGSGSGTDFTLTISSLEPEDFAVYYCQQRSNWPRTFGQGTKVEIK		14.9 nM
